Data taken from patent publication US20070224188A1.

Each substance was assayed against biotin-labeled soluble FcRn (assay: FcRn ELISA pH 6.0).

Row | Substance | FcRn pH6.0 (% of wild type) | FcRn6.0 (% of wild type)
1 | anti-CD20 IgG1 E430Y (antibody) | 126 | 
2 | anti-CD20 IgG1 V279A (antibody) | 214 | 
3 | anti-CD20 IgG1 E283D (antibody) | 110 | 
4 | anti-CD20 IgG1 286F376V (antibody) |  | 349
5 | anti-CD20 IgG1 G341S (antibody) | 55 | 
6 | anti-CD20 IgG1 L251W (antibody) | 0 | 
7 | anti-CD20 IgG1 H429A (antibody) | 61 | 
8 | anti-CD20 IgG1 S254V (antibody) | 31 | 
9 | anti-CD20 IgG1 D312P (antibody) | 546 | 
10 | anti-CD20 IgG1 P257V (antibody) | 447 | 
11 | anti-CD20 IgG1 P343D (antibody) | 102 | 
12 | anti-CD20 IgG1 S440A (antibody) | 82 | 
13 | anti-CD20 IgG1 Q311E (antibody) | 46 | 
14 | anti-CD20 IgG1 E382K (antibody) | 153 | 
15 | anti-CD20 IgG1 K248P (antibody) | 34 | 
16 | anti-CD20 IgG1 P257N (antibody) | 867 | 
17 | anti-CD20 IgG1 I377G (antibody) | 76 | 
18 | anti-CD20 IgG1 L432S (antibody) | 70 | 
19 | anti-CD20 IgG1 K439E (antibody) | 94 | 
20 | anti-CD20 IgG1 S440T (antibody) | 71 | 
21 | anti-CD20 IgG1 F423N (antibody) | 158 | 
22 | anti-CD20 IgG1 E293S (antibody) | 101 | 
23 | anti-CD20 IgG1 D249N (antibody) | 112 | 

Row | Substance | FcRn pH6.0 (% of wild type) | FcRn6.0 (% of wild type)
24 | anti-CD20 IgG1 314Y440Y (antibody) |  | 78
25 | anti-CD20 IgG1 E430T (antibody) | 137 | 
26 | anti-CD20 IgG1 332E440Y (antibody) |  | 94
27 | anti-CD20 IgG1 S375R (antibody) | 595 | 
28 | anti-CD20 IgG1 V279F (antibody) | 113 | 
29 | anti-CD20 IgG1 V279T (antibody) | 265 | 
30 | anti-CD20 IgG1 P247L (antibody) | 57 | 
31 | anti-CD20 IgG1 T256Q (antibody) | 64 | 
32 | anti-CD20 IgG1 P257M (antibody) | 835 | 
33 | anti-CD20 IgG1 S440N (antibody) | 82 | 
34 | anti-CD20 IgG1 S267H (antibody) | 86 | 
35 | anti-CD20 IgG1 H429F (antibody) | 77 | 
36 | anti-CD20 IgG1 A378D (antibody) | 163 | 
37 | anti-CD20 IgG1 T250M (antibody) | 165 | 
38 | anti-CD20 IgG1 258D286F (antibody) |  | 445
39 | anti-CD20 IgG1 G385P (antibody) | 101 | 
40 | anti-CD20 IgG1 A431H (antibody) | 151 | 
41 | anti-CD20 IgG1 S426D (antibody) | 65 | 
42 | anti-CD20 IgG1 256P430Q (antibody) |  | 150
43 | anti-CD20 IgG1 S254G (antibody) | 7 | 
44 | anti-CD20 IgG1 L235R (antibody) | 93 | 
45 | anti-CD20 IgG1 S254R (antibody) | 14 | 
46 | anti-CD20 IgG1 L235E (antibody) | 87 | 

Row | Substance | FcRn pH6.0 (% of wild type) | FcRn6.0 (% of wild type)
47 | anti-CD20 IgG1 P247D (antibody) | 54 | 
48 | anti-CD20 IgG1 A339H (antibody) | 107 | 
49 | anti-CD20 IgG1 P343Y (antibody) | 112 | 
50 | anti-CD20 IgG1 P238L (antibody) | 115 | 
51 | anti-CD20 IgG1 E430G (antibody) | 131 | 
52 | anti-CD20 IgG1 257I311I434H (antibody) |  | 553
53 | anti-CD20 IgG1 S440I (antibody) | 96 | 
54 | anti-CD20 IgG1 Q311K (antibody) | 165 | 
55 | anti-CD20 IgG1 G236Y (antibody) | 76 | 
56 | anti-CD20 IgG1 E382W (antibody) | 172 | 
57 | anti-CD20 IgG1 E318P (antibody) | 75 | 
58 | anti-CD20 IgG1 L251F (antibody) | 64 | 
59 | anti-CD20 IgG1 S254W (antibody) | 0 | 
60 | anti-CD20 IgG1 G316K (antibody) | 131 | 
61 | anti-CD20 IgG1 E318N (antibody) | 216 | 
62 | anti-CD20 IgG1 N434G (antibody) | 358 | 
63 | anti-CD20 IgG1 T256E (antibody) | 339 | 
64 | anti-CD20 IgG1 256P332E (antibody) |  | 121
65 | anti-CD20 IgG1 D249P (antibody) | 138 | 
66 | anti-CD20 IgG1 G341Y (antibody) | 54 | 
67 | anti-CD20 IgG1 T256V (antibody) | 114 | 
68 | anti-CD20 IgG1 E430W (antibody) | 11 | 
69 | anti-CD20 IgG1 S440D (antibody) | 72 | 

Row | Substance | FcRn pH6.0 (% of wild type) | FcRn6.0 (% of wild type)
70 | anti-CD20 IgG1 D280A (antibody) | 55 | 
71 | anti-CD20 IgG1 P238E (antibody) | 76 | 
72 | anti-CD20 IgG1 L235G (antibody) | 85 | 
73 | anti-CD20 IgG1 P343F (antibody) | 89 | 
74 | anti-CD20 IgG1 I253A (antibody) | 0 | 
75 | anti-CD20 IgG1 T256R (antibody) | 33 | 
76 | anti-CD20 IgG1 A339I (antibody) | 80 | 
77 | anti-CD20 IgG1 G316F (antibody) | 34 | 
78 | anti-CD20 IgG1 307E376V (antibody) |  | 480
79 | anti-CD20 IgG1 D376W (antibody) | 1 | 
80 | anti-CD20 IgG1 P343Q (antibody) | 442 | 
81 | anti-CD20 IgG1 S440E (antibody) | 73 | 
82 | anti-CD20 IgG1 S440H (antibody) | 110 | 
83 | anti-CD20 IgG1 P343M (antibody) | 83 | 
84 | anti-CD20 IgG1 S254H (antibody) | 0 | 
85 | anti-CD20 IgG1 G341W (antibody) | 76 | 
86 | anti-CD20 IgG1 I332D (antibody) | 78 | 
87 | anti-CD20 IgG1 272R283R (antibody) |  | 439
88 | anti-CD20 IgG1 Y373F (antibody) | 110 | 
89 | anti-CD20 IgG1 S440F (antibody) | 87 | 
90 | anti-CD20 IgG1 S440Y (antibody) | 100 | 
91 | anti-CD20 IgG1 D270N (antibody) | 94 | 
